Laboratory results taken from article PMC6443781.

How the values were obtained:
AP2M1 160-435 [1] = molecular target: AP2M1 160-435 (UniProt Q96CW1); assay: isothermal titration calorimetry; conditions: reference: unphosphorylated peptide YMPMS; sites S616
AP2M1 160-435 [2] = molecular target: AP2M1 160-435 (UniProt Q96CW1); assay: peptide-bead pull-down, Coomassie; conditions: reference: unphosphorylated peptide YMPMS
[3] = molecular target: GFP-AP2B1 full length (FL) (UniProt P63010); assay: co-immunoprecipitation (anti-Myc IP, anti-AP2B1 blot, band quantification); conditions: 293FT cells transfected with GFP-AP2B1 and Myc-BUBR1; n = 3 independent experiments; parent: 1
UniProt P63010, sequence (P63010 whole entry, the tested form may be a part): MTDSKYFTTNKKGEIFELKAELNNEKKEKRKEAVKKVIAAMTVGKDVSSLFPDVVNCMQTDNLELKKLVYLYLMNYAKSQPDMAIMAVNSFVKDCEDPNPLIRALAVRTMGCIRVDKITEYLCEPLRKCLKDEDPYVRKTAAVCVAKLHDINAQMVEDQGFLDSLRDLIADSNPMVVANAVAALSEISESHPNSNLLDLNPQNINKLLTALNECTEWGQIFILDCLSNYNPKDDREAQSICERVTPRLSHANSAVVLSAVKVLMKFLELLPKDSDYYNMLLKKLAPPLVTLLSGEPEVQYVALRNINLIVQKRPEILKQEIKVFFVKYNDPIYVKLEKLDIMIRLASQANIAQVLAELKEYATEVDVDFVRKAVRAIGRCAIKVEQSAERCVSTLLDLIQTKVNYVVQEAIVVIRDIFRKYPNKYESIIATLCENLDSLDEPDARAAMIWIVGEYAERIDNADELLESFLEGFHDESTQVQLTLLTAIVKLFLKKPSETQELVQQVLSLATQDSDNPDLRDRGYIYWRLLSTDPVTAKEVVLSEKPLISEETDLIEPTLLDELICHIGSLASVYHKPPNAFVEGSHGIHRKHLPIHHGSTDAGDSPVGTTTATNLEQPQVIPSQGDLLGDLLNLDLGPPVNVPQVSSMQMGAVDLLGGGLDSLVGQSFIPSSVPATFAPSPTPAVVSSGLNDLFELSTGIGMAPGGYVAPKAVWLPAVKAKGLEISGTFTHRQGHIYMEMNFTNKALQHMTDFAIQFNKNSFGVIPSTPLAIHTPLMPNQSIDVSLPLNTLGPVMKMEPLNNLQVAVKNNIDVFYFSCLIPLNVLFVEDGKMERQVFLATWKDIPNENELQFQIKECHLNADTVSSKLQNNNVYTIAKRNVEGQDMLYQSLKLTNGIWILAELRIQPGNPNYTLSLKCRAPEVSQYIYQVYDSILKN

[4] = molecular target: AP2M1 (residues 160–435) (human) (UniProt Q96CW1); assay: ITC; MicroCal ITC200, 20 °C, 25 mM HEPES pH 7.5, 50 mM NaCl; AP2M1 (160–435) 50 µM in the cell, IRS1 peptide (about 0.5 mM) injected

UniProt Q96CW1, sequence (Q96CW1 160-435): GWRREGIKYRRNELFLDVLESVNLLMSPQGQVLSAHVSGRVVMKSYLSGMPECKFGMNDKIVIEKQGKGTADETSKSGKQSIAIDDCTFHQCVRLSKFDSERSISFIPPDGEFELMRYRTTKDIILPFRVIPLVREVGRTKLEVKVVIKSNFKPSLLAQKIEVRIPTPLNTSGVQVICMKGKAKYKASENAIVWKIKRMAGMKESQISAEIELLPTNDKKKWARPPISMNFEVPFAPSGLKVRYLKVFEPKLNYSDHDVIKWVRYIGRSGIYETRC

ratio to parent [3] | Substance | other results
1.31 | Myc-BUBR1 full length (WT) (from UniProt O60566) ΔKEN1 | –
0.75 | Myc-BUBR1 full length (WT) (from UniProt O60566) ΔPhe | –
0.67 | Myc-BUBR1 full length (WT) (from UniProt O60566) ΔPhe; ΔD2 | –

The remaining lines, values behind:

Substance | ratio to parent [3] | other results
IRS1 607-620 (from UniProt P35568) YMPMpS peptide | – | KD (AP2M1 160-435 [1]): stronger; reference 2.03 µM; binding against the reference (AP2M1 160-435 [2]; sites S616): stronger
IRS1 607-620 (from UniProt P35568) pYMPMS peptide | – | binding against the reference (AP2M1 160-435 [2]; sites Y612): lost
Myc-BUBR1 full length (WT) (from UniProt O60566) ΔD2 | 0.72 | –
Myc-BUBR1 full length (WT) (from UniProt O60566) ΔKEN2 | 0.94 | –
phospho-serine IRS1 peptide (pS-IRS1; YMPMpS) | – | Kd [4]: 280 nM
unphosphorylated IRS1 peptide (YMPMS) | – | Kd [4]: 2030 nM
